In the DeepSol protein solubility set:

experiment: soluble on expression in E. coli; label from the status in PepcDB or PDB records

Soluble on expression in E. coli, not soluble:
MSSLMCHGGGLPEVRVARPSGRAERIAALGELCRAGSIVHIGEAARQIGASEITIRRDLSVGAGGLVCLGGYVMRASEGAEGYSLTAAEASEAGAKEALAVRAAALIEPGDTVFLDCGTTTPYLAARVPQNARVTVVTQALNIAETVARLTGVNLILLAGIYHPETASFSSEEAVAMLGRINITKGFFSAAGVHETEGVTCFHFHEVPVKRAALARSRQPYLVCDGSKWGRLRPATYARLEEFEGWIGAPDRAALEHHHHHH, MSSNQYIQSLELTNFTVLPNDTFEFSENLNVIVAENGCGKTHLLKILYSLLEVTSNTKNRLLKTELQKSFADKLLNVFRPDSLGRLSKRLQGRGRTEIVLKLQNGTTHSSLNFSSNSSSQVNVQSIGLKENEYTPTPIFLPSRELITLCPWFTSLYQNQSIPFEETWFDTCMQLNHPLAKGPRETKIRELLEPIENAMGGKVSEEQGRFYLSLTNTGGKIEAPLVAEGLRKFVMIARLIATGALLDKGYLFWDEPEANLNPKLIKVAARIIWSLSQQGIQVFIATHSLFLLRELELLKLENNTDLPVRFFSLIASDDGTKVEQGNSINDLNTLILLDENIMQADRYLNI, MSSQPRFIHLRTHTDFSMIDSIVKVKPLVKACAANEMVAMGLTDFTNFCGVVSFYSEMLSSGMKPIIGADVKVKSPLCGDEYFDLTLLAKNNEGYRNITLLLSKAYQRGYNDLPYIDQDWLIEHRDGVIILSGGTQGDVGKKLLKENVAEIESAVAFYQEFFADHFYLALSRTGRPNEERYIQAALKLAERCDLPLVATNDVMFLNTEDFEAHEIRVAIHDGYTLDDPKRPKCYTSQQYFRSEEDMCKLFADIPSALENTLLIAQRCSVTLRLGQYFLPQFPTGDLSTEDFLVQKSKEGLEERLVFLFPDEKVRLEKRPKYDERLQVELDVINQMGFPGYFLIVMEFIQWSKDNDIPVGPGRGSGAGSLVAYALKITDLDPLEFDLLFERFLNPERVSMPDFDVDFCMDGRDRVIEHVAETYGRGAVSQIITFGTMAAKAVIRDVGRVLGHPYGFVDRISKLIPPDPGMTLAKAFETEPQLQTAYDSDEEVRALINMARKLEGVTRNAGKHAGGVVISPTLITDFAPLYCDNEGLHPVTHFDKNDVEYAGLVKFDFLGLRTLTIIKWALDIINVRMVREGKPRVDIAAIPLDDPESFELLKRSETTAVFQLESRGMKDLIKRLQPDCFEDIIALVALFRPGPLQSGMVDNFIDRKHGREEVSYPDAEYQHASLKPILEPTYGIILYQEQVMQIAQVLAGYTLGGADLLRRAMGKKKPEEMAKQRLVFKEGAEKNGIDGELSMKIFDLVEKFAGYGFNKSHSAAYALVSYQTLWLKTHFPAEFMAAVMTSEMDNTDKIVGLYDECLRMGLKVTPPDINIGKHHFSVNEQGEIVYGIGAIKGVGEGPIEALVAARNEGGIFKDLFDLCARVDLKKINRRTFESLIMSGAFDKLGPHRAALSKNLEDALRASDQHAKDEAMGQTDMFGVLTETHEDVENAYANTPPYTEKQILDGERETLGLYLSSHPVSRYLKELSHYTSTRLKDLAPNRRGQISTVAGLVVASRIAMTKKGNRLGIATLDDRSGRLDLTLFGESLEQFGEKLQKDTVIVASGQVSFDDFSGGLKMTVRELMTLDEARSRYVKSLAISLSEHQITPSFIKQFKALLEPVSGGTLPINVYYQSPKGRALLRLGVQWSIIPTDEILTELVNLLGESAVELEFE, MSSSEGNSDASAPGTPVKSSTPSSRGSSPDSPKKQEPSKKRAILNESDDDDDSRPAPRQLSDSSDDNIHPRGGGEKSSPGAGGGLFGDLSGSSDDDSDREGKPKESNTRARLSDSDAESRGSLNDLQGIVMANPDEIDEDEKAKEHVHDTEMVTGRVTLEYAADPPHFVRMPNFLSVATHPFDPQHYEEDEDDEQAKLDDEGRTRLKLRVENTLRWRVRKDENGKEIRESNAKIVKWDDGTMSLYLGNEIFEVSLVPLNSNNLPHLYVKQPTLMSAQAVLTHRMTFRPHSTDSQTHRKVTLNMADRSRKNAQVKVMDDVGQNPEITRRENARKEEESLRAHIRRTQMVRNNFKVRGPRYAGQYSDDEDMPTSSRKGKKKEAPIIGASSESEDDHADTTKKSGSDSDSDEEYRKRKQQQKKQIVTSDEESD, MSSTKQKALKKIAKCLELGNSANVNEAAQAIKMAHRLMLKYGLEKDDIEFIKMGKTQSIHLLPANVGSNILKIIRGINTRFGVEAVLLNHKGLKKVEFIGSADRAIFAAFAFDIVYREMNEQTGQFKNSFAGTGTGQLEVTKRVNSFLAGWIEGALEKLPVIAPDEDSANKINDYIDKEFKNIDRETFKQQLKEAMANITADYEKGLKKGRTISVNRPVAGAQAPKLLK, MSSVPQSKQELELAIHSVFPKLMADYRSIPAQMSRVCSIDGNIQGTQISVCDTVAYLIGWGKLVLKWYELTSQTLPVDFPDTGYKWNQLELLADRFHQEYHQWQYSDLLNEYELTMAKLLTLIASLSVQQLYGIAWYDKWTLGRMIQFNTYSPMKNMRTKVRRFKKDNALKLEHHHHHH, MSSYDVVIIGGGPAGLFAAYELAGLAKDNVSNYKILLVDKGARASKRTCPLLSPKEKCTFCDPCHIMYGFGGAGTFSSGIINLRPDIGGELHEITRSWDKAQELINYVDDIFVKFGAPKDRVFEPNMEKVREIQRRAAKVGAEFVPIRQRHMGTDKTPLIIENIVNYVEKRGIKIGELTEVIDIEKKGNKFFLKTSRGEIESRIVLVAPGRAGAKWFYEQSKKLGVDTIPGPLDIGVRVETESFVFDELTEAVWDPKVILYSKRYDDKVRTFCVNPRGYIMKEVYDDGTIGVNGETYVDKKSNNTNFAFLTTIKLSDPLEDTIEYGKSIARLMTRLGGGKPILQRLIDFQKGRRSTWERINRSTVKPTLRDVTPGDISMGLPYRVVDNLIDGLERLDSIAPGIFSSNTLLYAPEIKYYSVRAVVDNNMETVVDNLFAAGDGTGLSRGINVAAATGILAARGIAIKLGLDLEHHHHHH, MSTAAETTGGDIEPWEEVTPDAARRLLVAAVEAFAERGYHATTTRDIAGRAGMSPAALYIHYKTKEELLHRISRIGHTRAVAILRSAAQGEGSAAERLADAVSSFVRWHAGRRTTARVVQYELDALGPEAREEILTLRRQCDAAVRGIIDDGVAAGEFDVPDVKGTTLAVLSLCIDVARWFNVNGPRTPDEVGALYADLVLRMVGAEPSGATAQR, MSTHIQRSALLPYPARALFDLVNDVKRYPEFLPWCSASQVLEESESLMRAELTVAKGSLSQRFTTRNVLVPGASIEMNLENGPFTELHGVWQFKALGEKACKITLDLTFDYAGPLVKATLGPLFTQAANTMVDAFCQRAKQLYG, MSTMSSPIYIQIHNQIKQAIEAGRWAVGDRIPSERELATQFDVSRMTLRQAIQTLVDEGILERRVGAGTFVANQKVQEKMSGVTSFTDLMLAQGKVPSSKTISYHVTSPSLSESEKLALGANEQVLRMERIRYGDDVPICFEVATVPERLVKQFTKDEITSSLYRTLEEKASLVPGKAQQTVSAMSASERIAEYLSVRRGDALLRLRQISYLQTGEPFEYVRTQYVGNRFEFYLEK, MSTNIFLHLPTTISTERTILRKTSFADATTLFDIWSDNDVAQFMNIEKFSTILQAEEMIQAIENEPNACRYTIFTMDNSLKAIGSLGINDINKNNQTIEIGYELAKSHWRQGLMFEILTTFLNTTKAHLPYKTITAKVLPENIASIKLLTKLGFELISTGQELDLHSGKICEISNYQLILN, MSTTRKLILANIHGVDKPGVTAELTAILAKHNAFILDIGQADIHNNLSLGILFQTDESHSGSILKDLLFKSYELDVTVRFEPITEEAYSEWVGMQGRNRYIITVVARKITAEMIAGIARSSAEQGLNIDDIKRLTGRIPLNETDRSPKASVEFSMRGTPTDIEKLQRNFMEMASQLNMDISFQRESMFR, MSTTTAITSTLQRVTKAPEGRRMLRVEARNSQTPIESKPRWIRTAVKTGPEYQDMKKKVSGASLHTVCQEAGCPNIHECWESREATFLIGGANCSRRCDFCQINSAKPEPLDRDEPRRVAESVREMQLNYSTITGVTRDDLEDEGAWLYAEVVRKIHELNPHTGVENLTPDFSGKPDLLQEVFEARPEVFAHNLETVPRIFKRIRPAFRYERSLDVIRQARDFGLVTKSNLILGMGETVDEIRDALVDLHSAGCDIITITQYLRPGPMYHPIDRWVKPEEFIDHADFARELGFGAVMSGPLVRSSYRAGKLYAEALAARGESLPENLAHLATTADGSTAQEANTLLEKYGPSQDTPVVSSKA, MSTVVSEGRNDGNNRYSPQDEVEDRLPDVVDNRLTENMRVPSFERLPSPTPRYFGSCKWFNVSKGYGFVIDDITGEDLFVHQSNLNMQGFRSLDEGERVSYYIQERSNGKGREAYAVSGEVEGQGLKGSRIHPLGRKKAVSLRCFRCGKFATHKAKSCPNVKTDAKVCYTCGSEEHVSSICPERRRKHRPEQVAAEEAEAARMAAEKSSPTTSDDDIREKNSNSSDE, MSTYSSPFSRLLHPFSSPPLRPHQDSTTRQTVFIYSSPPVNSSMATDNVRLERMEIGMQLLLLRMAEKDGEAEKLARAELITEANLGGQGETTQLNPLVPVSKATAEKLSNELDEVGRNRTARWSKSGRTCVVS

Soluble on expression in E. coli, soluble:
MSSSNWEKLKKKLDSAKSGRVEKKHSNEKKYLKSVKGKNNENENSYIVDKKRMNELKKFAKENDIPESQVLDAYGVDASKLTRKTNLETLGKYIAMDCEMVGVADDMSVLARVSIVNYHGHVVYDTYVRPKEKVTDWRTWVSGVKSFHMRDAPSFEKVQAEVAKILDNRVLVGHAVHNDLKVLLLSHPRRMIRDTSRFSGYRKLAKGRTPGLKKLAEVILGRDIQSGQHSSVQDAQATMELYKKVKKEMDEVAFKGLSKS, MSSYQQKQTFTPPPQLQQQQVKQPSQPPPQEIFVPTTKEPCHSKVPQPGNTKIPEPGCTKVPEPGCTKVPEPGCTKVPEPGCTKVPEPGCTKVPEPGYTKVPEPGSIKVPDQGFIKFPEPGAIKVPEQGYTKVPVPGYTKVPEPCPSTVTPGPAQQKTKQK, MSTDLQHIRIGLTNNHPCSYLPERQERVAVALDAELHTEQNYQLLMANGFRRSGDTIYKPHCERCHACQPIRISIPDFVLSRSQKRLLSKAKSLRWEMKTEMDAEWFELYSRYICKRHKNGTMYPPKRDEFSRFAQTTWLTTLFLHIYDESNQLLGVAVTDVMAQCSSAFYTFFEPDYPLSLGTLAVLYQVNYCQQNNEQWLYLGYQIDECPAMNYKTRFQRHQRLVNQRWQGLEHHHHHH, MSTIPSEIINWTILNEIISMDDDDSDFSKGLIIQFIDQAQTTFAQMQRQLDGEKNLTELDNLGHFLKGSSAALGLQRIAWVCERIQNLGRKMEHFFPNKTELVNTLSDKSIINGINIDEDDEEIKIQVDDKDENSIYLILIAKALNQSRLEFKLARIELSKYYNTNLH, MSTNFEKHFQENVDECTLEQLRDILVNKSGKTVLANRFRALFNLKTVAEEFATKPEEAKKAIEYIAESFVNDKSELLKHEVAYVLGQTKNLDAAPTLRHVMLDQNQEPMVRHEAAEALGALGDKDSLDDLNKAAKEDPHVAVRETCELAINRINWTHGGAKDKENLQQSLYSSIDPAPPLPLEKDATIPELQALLNDPKQPLFQRYRAMFRLRDIGTDEAILALATGFSAESSLFKHEIAYVFGQIGSPAAVPSLIEVLGRKEEAPMVRHEAAEALGAIASPEVVDVLKSYLNDEVDVVRESCIVALDMYDYENSNELEYAPTAN, MSVEKTCRYLSLFLVASLTGCGFHLRGSETSDGAGQVLFLEKAGSTRVGSRLPDAIRLTGAQLTRNMVDAKGVIRILKETDERRTMSLNLGGRGNLFDLYTRVRYEVTTPQGEIIIPPQEVEVKREYFNNQLSPIGQGEEESLLRSEMERELAETLVRRVLIEMSRNPGGKSLEHHHHHH
